Results: the supplement of paper PMC10724198
± gives the standard deviation of the averaged measurements.
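Note: PSI is a weighted mean of sequencing reads over stability bins, variants kept only with over 10 reads, mCherry proximal and sfGFP distal, peptide attached via GGGS linker.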

What follows are sequences tested on Saccharomyces cerevisiae (assay: protein stability index of tFT-peptide fusion (C-terminal peptide) (PSI (0-1 scale)); higher = more stable (slower turnover)). Conditions: genetic background: wild type; temperature: 30 C.
PLSWVLFSFFHA was tested, and the protein stability index was 0.697 ± 0.062.
LLGPSGRAIKIQ was tested, and the protein stability index was 0.6659 ± 0.0013.
Work on VSRGHTEWVGMV yielded a protein stability index of 0.702 ± 0.11.
DFGYSLRIIRSE was tested, and the protein stability index was 0.746 ± 0.0099.
LHKSINPSPHPP was tested, and the protein stability index was 0.6864 ± 0.0066.
Sequence SLFPSEPRPPSL has a protein stability index of 0.719 ± 0.03.
In the case of LSFFLFLLSPFY, the protein stability index is reported as 0.582 ± 0.028.
Work on EGVGRGCSGGCW yielded a protein stability index of 0.713 ± 0.055.
Sequence SSWGARSGRRPS has a protein stability index of 0.6989 ± 0.0045.
PLPRPPSPPYPP gave a protein stability index of 0.65 ± 0.035.
VGWGECPKVECV was tested, and the protein stability index was 0.599 ± 0.1.
In the case of ARLSLEGASRGE, the protein stability index is reported as 0.653 ± 0.023.
For PPPPPLPPAPPP, the protein stability index was 0.558 ± 0.022.
AFVLTSRVFFPL was tested, and the protein stability index was 0.721 ± 0.053.
With LKDLGKQVVTVR the protein stability index was 0.587 ± 0.0062.
With PRPPPHPPPSPL the protein stability index was 0.50931 ± 0.00043.
Work on EVMGGANDCGVV yielded a protein stability index of 0.689 ± 0.012.
Sequence PRGHLDEFCVVL has a protein stability index of 0.705 ± 0.019.
For FACVLVLFPFFL, the protein stability index was 0.641 ± 0.099.
Work on CLPGVVRGLSTM yielded a protein stability index of 0.703 ± 0.036.
In the case of PTSLLPLRLLNS, the protein stability index is reported as 0.61185 ± 0.00055.
STHTASAIQWST showed a protein stability index of 0.661 ± 0.025.
For RPPRPAATGVQH, the protein stability index was 0.683 ± 0.018.
For GISASLRRMTRR, the protein stability index was 0.623 ± 0.017.
GSGRSGSRFLPV gave a protein stability index of 0.6606 ± 0.0057.
In the case of KKEEKKKNKNDR, the protein stability index is reported as 0.679 ± 0.027.
With TAYNVTLVIARG the protein stability index was 0.468 ± 0.094.
ALVRGGYLFFPP showed a protein stability index of 0.663 ± 0.026.
KKKKPKKKTQKS gave a protein stability index of 0.713 ± 0.04.
SGGRGAILVSVV was tested, and the protein stability index was 0.647 ± 0.078.
Work on QNWREDNKGKDI yielded a protein stability index of 0.697 ± 0.032.
In the case of WVTKGLYIMSTK, the protein stability index is reported as 0.663 ± 0.11.
Work on KNKTRSEISKNS yielded a protein stability index of 0.6974 ± 0.0017.
SPPLRSRSGSFL showed a protein stability index of 0.699 ± 0.062.
Work on GVVWMSCGGGGG yielded a protein stability index of 0.7684 ± 0.0017.
Work on PRLSSPAATSPP yielded a protein stability index of 0.709 ± 0.012.
Sequence LGARGAGAPAPG has a protein stability index of 0.7286 ± 0.0037.
Work on DGGVGGGAPRVR yielded a protein stability index of 0.78 ± 0.14.
Sequence VGFGEGCLSFPF has a protein stability index of 0.668 ± 0.072.
RQRLGLRIIIPS showed a protein stability index of 0.624 ± 0.017.
For TFSGWYIQGQIV, the protein stability index was 0.702 ± 0.16.
NPMSLTTKRKTE showed a protein stability index of 0.651 ± 0.11.
GTACIIVSGYGL gave a protein stability index of 0.643 ± 0.016.
For SCMSVRKSSPRS, the protein stability index was 0.691 ± 0.044.
Sequence GVGSGEASDGCT has a protein stability index of 0.626 ± 0.12.
WAVGRGLVLSST was tested, and the protein stability index was 0.684 ± 0.042.
PRCIELASMRRP gave a protein stability index of 0.681 ± 0.068.
PSFLLPPLPPPT gave a protein stability index of 0.718 ± 0.0086.
For DVESGRVDLGEE, the protein stability index was 0.787 ± 0.15.
With PPHLPPSLSVLP the protein stability index was 0.663 ± 0.057.
For ACVRVVRLGCGW, the protein stability index was 0.616 ± 0.063.
EEQKKIRKRPEK gave a protein stability index of 0.69686 ± 0.00066.
With PSLSDPLAPPQG the protein stability index was 0.757 ± 0.089.
With PPPFSPLPLPPS the protein stability index was 0.71 ± 0.044.
Sequence GRGGARARRRVL has a protein stability index of 0.687 ± 0.071.
Sequence LSVGPIWFSCQA has a protein stability index of 0.605 ± 0.023.
Work on ILGPPPRLPFPS yielded a protein stability index of 0.657 ± 0.012.
EAKKNNIVEKQR gave a protein stability index of 0.681 ± 0.015.
In the case of PSPPHPPPPLFP, the protein stability index is reported as 0.706 ± 0.02.
Work on ISQNPYNGTGQE yielded a protein stability index of 0.6886 ± 0.001.
AVDSGSLERIRM showed a protein stability index of 0.69037 ± 0.00042.
SLSEEWAHIGGL showed a protein stability index of 0.643 ± 0.0072.
Sequence GFFFALGPPFSG has a protein stability index of 0.695 ± 0.019.
Work on CGLASHLCSGRG yielded a protein stability index of 0.66 ± 0.081.
AYRRPKFLEGTF showed a protein stability index of 0.694 ± 0.1.
Sequence LVVSLSYSFRSV has a protein stability index of 0.585 ± 0.045.
With CEPPRPGLLPLF the protein stability index was 0.724 ± 0.016.
Work on RKKHKYNKKNGQ yielded a protein stability index of 0.666 ± 0.07.
With KQGKKKDEWTRG the protein stability index was 0.6945 ± 0.0023.
With RGSPCPQRAALH the protein stability index was 0.7 ± 0.035.
Sequence NRDSRTLGSTVG has a protein stability index of 0.6744 ± 0.0011.
With HPSRPARPTRHP the protein stability index was 0.806 ± 0.072.
For GGGGGGGGSSCA, the protein stability index was 0.685 ± 0.067.
QVDLVCKKVVGV gave a protein stability index of 0.655 ± 0.029.
APYLPACALSSL gave a protein stability index of 0.706 ± 0.015.
For VCICDRLASRDV, the protein stability index was 0.733 ± 0.067.
GRENKWGKGRRE was tested, and the protein stability index was 0.67 ± 0.035.
AGSYERFSRGHR was tested, and the protein stability index was 0.688 ± 0.034.
PGLPLPPFPFFS gave a protein stability index of 0.762 ± 0.047.
Sequence KHTNWGKQLIMT has a protein stability index of 0.5631 ± 0.0016.
For PPPPGCLPRPAS, the protein stability index was 0.699 ± 0.021.
For KRITLNADIIIK, the protein stability index was 0.629 ± 0.11.
With ALVAGGRGRRLW the protein stability index was 0.692 ± 0.087.
IGARESGGWSLC was tested, and the protein stability index was 0.686 ± 0.023.
In the case of PSASYLPCRSKL, the protein stability index is reported as 0.7474 ± 0.0046.
With PPPPPPRPLAPS the protein stability index was 0.679 ± 0.029.
Sequence HSPHISAPPLPY has a protein stability index of 0.588 ± 0.024.
For PLRPPSSPLWHT, the protein stability index was 0.6937 ± 0.0037.
PPPPLPRPPPPP was tested, and the protein stability index was 0.615 ± 0.061.
For GGGVGGGGVEYG, the protein stability index was 0.638 ± 0.067.
Sequence GGGGALGRVWPG has a protein stability index of 0.685 ± 0.02.
With DEFCSHSLAGSS the protein stability index was 0.649 ± 0.024.
Sequence LGCLRLVPSPPG has a protein stability index of 0.757 ± 0.1.
RQSGSDFYGRSY gave a protein stability index of 0.663 ± 0.032.
EDTYSGKGSRGV showed a protein stability index of 0.774 ± 0.047.
Sequence LSTPASVLLSSG has a protein stability index of 0.682 ± 0.011.
PPWPPLLPRPSP was tested, and the protein stability index was 0.666 ± 0.03.
Sequence TGRGSMSNVRVK has a protein stability index of 0.706 ± 0.06.
Sequence PQTPPPLLPPSL has a protein stability index of 0.671 ± 0.013.
NKDEVHRRRGRI gave a protein stability index of 0.718 ± 0.017.
VRGMGGIGRCVG gave a protein stability index of 0.657 ± 0.074.
